B1: AP-Nogo66-His, wild type (alkaline phosphatase fusion of the NOGO66 domain of reticulon-4) [human] / RTNR-FLAG-His (Nogo66 receptor) on HEK293T cells [not stated] (parent)
chain 1: RIYKGVIQAIQKSDEGHPFRAYLESEVAISEELVQKYSNSALGHVNCTIKELRRLFLVDDLVDSLK
chain 2: CPGACVCYNEPKVTTSCPQQGLQAVPVGIPAASQRIFLHGNRISHVPAASFRACRNLTILWLHSNVLARIDAAAFTGLALLEQLDLSDNAQLRSVDPATFHGLGRLHTLHLDRCGLQELGPGLFRGLAALQYLYLQDNALQALPDDTFRDLGNLTHLFLHGNRISSVPERAFRGLHSLDRLLLHQNRVAHVHPHAFRDLGRLMTLYLFANNLSALPTEALAPLRALQYLRLNDNPWVCDCRARPLWAWLQKFRGSSSEVPCSLPQRLAGRDLKRLAANDLQGCAVATGPYHPIWTGRATDEEPLGLPKCCQPDAADKASVLEPGRPASAGNALKGRVPPGDSPPGNGSGPRHINDSPFGTLPGSAEPPLTAVRPEGSEPPGFPTSGPRRRPGCSRKNRTRSHCRLGQAGSGGGGTGDSEGS

The variants in this assay derive from B1. Briefly: AP (alkaline phosphatase fusion) receptor binding assay on HEK293T cells overexpressing RTNR. Particulars: with RTNR-FLAG-His (Nogo66 receptor) on HEK293T cells; RTNR OE HEK293T cells; n = 3 biological replicates, mean ± s.d.; parent: 0.00087; read off a plot.
Turning to chain 1 C47W, the response (min^-1 (absorbance/time)) is 0.0015.

For the origin of these results see PMC13423832.
